T1: 4Ig-domain of Neogenin (Gallus gallus, UniProt Q90610)
T1 construct: made in house
T1 sequence (Q90610 1-383): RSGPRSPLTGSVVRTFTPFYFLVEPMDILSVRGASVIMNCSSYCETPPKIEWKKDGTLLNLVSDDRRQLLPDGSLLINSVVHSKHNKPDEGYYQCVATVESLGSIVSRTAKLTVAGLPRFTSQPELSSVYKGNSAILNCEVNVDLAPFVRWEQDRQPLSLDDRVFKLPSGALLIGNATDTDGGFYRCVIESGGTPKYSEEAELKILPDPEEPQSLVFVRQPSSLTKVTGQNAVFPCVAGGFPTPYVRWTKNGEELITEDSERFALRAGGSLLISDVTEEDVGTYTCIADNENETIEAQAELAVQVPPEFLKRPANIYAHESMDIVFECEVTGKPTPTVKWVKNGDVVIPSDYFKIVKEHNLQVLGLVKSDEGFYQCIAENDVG

B1: 4Ig: four immunoglobulin-like domains of Neogenin, amino acids 1 to 383 of Accession No. AAC59662 (SEQ ID NO:1) (protein, listed as Gallus gallus)
chain: RSGPRSPLTGSVVRTFTPFYFLVEPMDILSVRGASVIMNCSSYCETPPKIEWKKDGTLLNLVSDDRRQLLPDGSLLINSVVHSKHNKPDEGYYQCVATVESLGSIVSRTAKLTVAGLPRFTSQPELSSVYKGNSAILNCEVNVDLAPFVRWEQDRQPLSLDDRVFKLPSGALLIGNATDTDGGFYRCVIESGGTPKYSEEAELKILPDPEEPQSLVFVRQPSSLTKVTGQNAVFPCVAGGFPTPYVRWTKNGEELITEDSERFALRAGGSLLISDVTEEDVGTYTCIADNENETIEAQAELAVQVPPEFLKRPANIYAHESMDIVFECEVTGKPTPTVKWVKNGDVVIPSDYFKIVKEHNLQVLGLVKSDEGFYQCIAENDVGNAQAGAQLIILDLDVAIPTLPPTSLTSATNDHLAPATTGPLPTAPRDVVATLVSTRFIRLTWRTPVSDPQGDNLTYSIFYTKEGINRERVENTSRPGETQVMIQNLMPETVYVFRVVAQNKHGHGESSAPLKVATQPEVQLPGPAPNIRAYAGSPTSVTVTWETPLSGNGEIQNYKLYYMEKGQDSEQDVDVAGLSYTITGLKKYTEYSFRVVAYNKHGPGVSTQDVVVRTLSDVPSAAPQNLTLEARNSKSIMLHWQPPPAGTHSGQITGYKIRYRKVSRKSDVTESVGGTQLFQLIEGLERGTEYNFRIAAMTVNGTGPATDWVSAETFESDLDESRVPEVPSSLHVRPLVTSIVVSWTPPENQNIVVRGYAIGYGIGSPHAQTIKVDYKQRYYTIENLDPSSHYVITLKAFNNVGEGIPLYESAVTRPHSDTSEVDLFVINAPYTPVPDPSPMMPPVGVQASILSHDTIRITWADNSLPKNQKITDARYYTVRWKTNIPANTKYKTANATTLSYLVTGLKPNTLYEFSVMVTKGRRSSTWSMTAHGTTFELVPTSPPKDVTVVSKEGKPRTIIVNWQPPSEANGKITGYIIYYSTDVNAEIHDWVIEPVVGNRLTHQIQELTLDTPYYFKIQARNSKGMGPMSEAVQFRTPKAESSDKMPNDQASGSAGKGSRPVDVGPDYKPPLSGSNSPHGSPTSPLDSNMLLVIIVSVGVITIVIVVIVAVFCTRRTTSHQKKKRAACKSVNGSHKYKGNSKDVKPPDLWIHHERLELKPIDKSPDPNPIMTDTPIPRNSQDITPVDNSMDSNIHQRRNSYRGHESEDSMSTLAGRRGMRPKMMMPFDSQPPQPVISAHPIHSLDNPHHHFHSGSLASPTRSYLHHQVSPWPVGTSMSHSDRANSTESVRNTPSSDTMPASSSQPCADHQDPDSSSGAYLGSAQEEDAAQSLPTAHVRPSHPLKSFAVPAVPAAGSAYDPTLPSTPLLTQQAPSHPVHSVKTASIGTLGRTRPPMPVVVPSAPDVQETTRMLEDSESSYEPDELTKEMAHLEGLMKDLNAITTA
modifications: Neogenin - Accession No. AAC59662

Experiments:
4Ig-domain of Neogenin = target: T1, 4Ig-domain of Neogenin; test: ELISA / AP binding assay of RGMa peptides to Neogenin domains; details: ELISA, Neogenin domains fused to AP
From the text: Specifically, the 4Ig-domain and 6FNIII-domain of Neogenin were each fused to alkaline phosphatase (AP). The 4Ig-domain and 6FNIII-domain of Neogenin were found in the extracellular portion of Neogenin. Accession No. AAC59662 (SEQ ID NO:1) was the amino acid sequence of Neogenin. The 4Ig-domain was amino acids 1 to 383 of Accession No. AAC59662 (SEQ ID NO:1). The 6FNIII-domain was amino acids 429 to 1036 of Accession No. AAC59662 (SEQ ID NO:1).
The binding of these fusions to various RGMa peptides were analyzed in an ELISA assay (FIG. 2A).
To determine if distinct N-terminal regions of RGMa bound the 4Ig- and 6FNIII-domains of Neogenin, peptides were generated that spanned the N-terminal region of RGMa. The amino acid sequence of RGMa was Accession No. NP_989868.1 (SEQ ID NO:6). These peptides were a peptide spanning amino acids 28-73 of RGMa (also referred to herein as “N-Raft”) and a peptide spanning amino acids 77-113 of RGMa (also referred to herein as “N-inh”). […] In a complementary experiment, in which the N-Raft and N-inh peptides of RGMa were fused with AP instead of the 4Ig- and 6FNIII-domains of Neogenin, N-Raft bound to the 4Ig-domain and not the 6FNIII-domain while N-inh bound to the 6FNIII-domain and not the 4Ig-domain (FIG. 9). Additionally, N-inh and N-Raft coated beads pulled down 6FNIII-domain and 4Ig-domain, respectively, which was consistent with the ELISA results described above (FIG. 2B).
The assay was conducted in a 96-well microtiter plate (Corning Incorporated). The wells were coated with 100 μl (10 μg/mL) of Poly-L-Lysine at 4° C. overnight. Wells were then washed three times with 100 μl of PB ST (+0.02% Tween).
50 μl (2.5 μg/mL) of His-tagged: Full-length Neogenin; the 4Ig-domain of Neogenin; and 6FNIII-domain of Neogenin were coated onto each well for 1 hour at 37° C. Following three washes of 100 μl PBST, each well was then blocked with 300 μl of 3% BSA in PBST for 1 hour at 37° C.
50 μl (1.0 μg/mL) AP-tagged: N-RGMa (28-73); N-RGMa (28-54); N-RGMa (40-62); N-RGMa (54-73); N-RGMa (54-62) in 1% BSA+PBST was then added to each well and incubated at 37° C. for 1 hour. Each well was washed thoroughly three times with 100 μl PBST followed by subsequent equilibration of each well with Alkaline Phosphatase (AP) developing buffer (100 mM NaHCO3, 1 mM MgCl2). The reaction was developed using AP developing buffer supplemented with, p-nitrophenyl phosphate (pNPP) (Sigma-Aldrich) and allowed to develop until color development. The reaction was stopped with the addition of 50 μl (0.1M) NaOH. The absorbance of each reaction was measured using a microplate autoreader (BIO-TEK Instruments Inc.) at 405 nanometers (nm) wavelength.

brain after stroke = test: Cerebral focal ischemia model (MCA clot occlusion); assay type: in vivo, rat; details: daily injections
Protocol: In all experiments, female Sprague-Dawley rats weighing 200-250 g were used. Briefly, focal cerebral ischemia was induced by injection of a preformed clot into the MCA. The rats were initially anesthetized with 3.0% isoflurane and then maintained with 1.5% isoflurane in a mixture of 30:70 O2 and […] with a face mask during surgery. Body temperature was maintained at 37° C. in the normothermic rats with a heating pad for the duration of surgery and in the immediate postoperative period until the animal was fully recovered from anesthesia.
A 1.5-cm longitudinal incision was made in the midline of the ventral cervical skin. The right common carotid artery (CCA), right internal carotid artery (ICA), and right external carotid artery (ECA) were exposed. The distal portion of the ECA was ligated and cut. A modified polyethylene-10 catheter, filled with bovine thrombin (Thrombostat, TM Warner-Lambert Co.), was introduced into the lumen of the right ECA via a small puncture. Ten micro liters of blood was withdrawn into the catheter and retained for 15 minutes to allow formation of a clot. […] After returning to their cage, animals were monitored for normal recovery.
The infarct volume was expressed as a percentage of the total volume from the ipsilateral hemisphere. Brain edema was determined by calculating the volume difference between the 2 hemispheres and dividing by the volume of the left hemisphere.
Briefly, 7 days after MCA occlusion the anesthetized rats were killed. […] The images were analyzed and the determination of infarct volume and edema was blinded. The infarct volume was calculated using the following formula: Infarct volume=[left hemisphere volume−(the right hemisphere volume−measured infarct volume)]/left hemisphere volume.
Brain swelling was determined using the following formula: Swelling (edema)=(right hemisphere volume−left hemisphere volume)/left hemisphere volume. […]
Briefly, neurological deficits were determined using a modified Bederson's scoring system. […] Mortality was also recorded. […]

Molecule	interaction with the 4Ig-domain of Neogenin (4Ig-domain of Neogenin)	brain edema compared to control (brain after stroke)	infarct volume compared to control (brain after stroke)	behavioral deficits compared to control (brain after stroke; Bederson test)
N-Raft: peptide spanning amino acids 28-73 of RGMa (SEQ ID NO:2) (SPCKILKCNSEFWAATSGSHHLGAEETPEFCTALRAYAHCTRRTAR; N-Raft - amino acids 28-73 of RGMa)	interacted	–	–	–
B1	–	significantly reduced	significantly reduced	significantly reduced

Reference: US11497796B2, “Agents directed against a cis RGMa/neogenin interaction or lipid rafts and use of the same in methods of treatment” (UNIVERSITY HEALTH NETWORK, priority 2013, dated 2022)
